Test results: paper PMC3183262

Tests used:
Assay in all cases: Ni-NTA pull-down of fluorescent DNA with competition, filter plate
[1] = target: IF2D1-Sox2-R9 (human, UniProt P48431 1-317)
[2] = target: IF2D1-Klf4-R9 (human, UniProt O43474 1-513)
[3] = target: IF2D1-Oct4-R9 (human, UniProt Q01860 1-360)
IF2D1-Oct4-R9, sequence (Q01860 whole entry): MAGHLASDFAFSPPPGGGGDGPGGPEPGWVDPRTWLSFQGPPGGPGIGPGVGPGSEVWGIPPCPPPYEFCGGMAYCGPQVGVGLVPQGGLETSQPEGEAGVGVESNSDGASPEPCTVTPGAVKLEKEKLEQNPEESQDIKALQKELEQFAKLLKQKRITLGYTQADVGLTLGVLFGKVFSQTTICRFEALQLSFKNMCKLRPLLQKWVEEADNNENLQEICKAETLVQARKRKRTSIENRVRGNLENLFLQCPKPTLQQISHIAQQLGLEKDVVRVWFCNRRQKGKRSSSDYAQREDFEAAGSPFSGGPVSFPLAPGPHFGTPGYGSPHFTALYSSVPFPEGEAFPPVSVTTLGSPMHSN

IF2D1-Sox2-R9, sequence (P48431 whole entry): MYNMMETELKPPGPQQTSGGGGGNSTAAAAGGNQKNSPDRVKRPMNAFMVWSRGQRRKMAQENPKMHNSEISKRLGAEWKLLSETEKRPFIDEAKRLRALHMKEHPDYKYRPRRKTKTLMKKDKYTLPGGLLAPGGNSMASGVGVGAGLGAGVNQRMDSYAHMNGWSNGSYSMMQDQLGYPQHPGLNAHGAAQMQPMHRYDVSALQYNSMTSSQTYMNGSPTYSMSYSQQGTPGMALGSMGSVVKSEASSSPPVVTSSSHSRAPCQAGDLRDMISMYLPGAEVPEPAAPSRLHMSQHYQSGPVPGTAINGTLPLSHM
IF2D1-Klf4-R9, sequence (O43474 whole entry): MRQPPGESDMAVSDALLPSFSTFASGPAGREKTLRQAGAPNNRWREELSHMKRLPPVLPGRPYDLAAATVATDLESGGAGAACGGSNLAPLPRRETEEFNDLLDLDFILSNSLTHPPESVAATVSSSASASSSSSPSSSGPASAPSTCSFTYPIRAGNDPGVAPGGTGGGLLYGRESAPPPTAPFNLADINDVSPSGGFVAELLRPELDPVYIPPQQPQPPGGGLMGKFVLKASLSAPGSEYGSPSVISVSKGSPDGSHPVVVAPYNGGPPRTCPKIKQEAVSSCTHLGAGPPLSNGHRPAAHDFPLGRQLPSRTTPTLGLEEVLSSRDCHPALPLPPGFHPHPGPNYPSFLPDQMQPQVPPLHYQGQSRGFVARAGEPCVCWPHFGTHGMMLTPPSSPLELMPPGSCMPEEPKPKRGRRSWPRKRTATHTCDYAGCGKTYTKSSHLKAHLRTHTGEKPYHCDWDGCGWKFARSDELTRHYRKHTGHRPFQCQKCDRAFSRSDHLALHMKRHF

B1: Sox2 cognate probe (dsDNA)
DNA 1: CAGAGGACAAAGGTGGACAAAGGTGGACAAAGCG
DNA 2: CGCTTTGTCCACCTTTGTCCACCTTTGTCCTCTG
[1]
  binding result: binds

B2: Klf4 cognate probe (dsDNA)
DNA 1: CAGAGAACCCCACCCATAAACCCCACCCATAAACCCCACCCCG
DNA 2: CGGGGTGGGGTTTATGGGTGGGGTTTATGGGTGGGGTTCTCTG
[2]
  binding result: binds

B3: Oct4 cognate probe (dsDNA)
DNA 1: CAGAGAGATGCATGTGAGATGCATGTGAGATGCATCG
DNA 2: CGATGCATCTCACATGCATCTCACATGCATCTCTCTG
[3]
  binding result: binds
